These results are taken from US20220064302A1 (GIGAGEN, published 2022).

Test [1] deals with T1, human PD-1 (soluble PD-1 protein, R&D Systems) (human, UniProt Q15116 25-170, limits assumed).
T1 construct: the kinetics paragraphs say only 'PD-1' / 'antigen'; also called hPD-1; soluble PD-1 immunogen
As to the kind of experiment: array SPR (Carterra), mAb captured, PD-1 as analyte. As for the experimental part: (§1) For SPR, a moderate density (»1,000 Response Units) of an antihuman IgG-Fc reagent (Southern Biotech 2047-01) was amine-coupled to a Xantec CMD-50M chip (50 nm carboxymethyldextran medium density of functional groups) activated with 133 mM EDC (Sigma) and 33.3 mM S-NHS (ThermoFisher) in 100 mM MES pH 5.5. Then, goat anti-Human IgG Fc (Southern Biotech 2047-01) was coupled for 10 minutes at […] in 10 mM Sodim Acetate pH 4.5 (Carterra Inc.). The surface was then deactivated with 1 M ethanolamine pH 8.5 (Carterra Inc.). Running buffer used for the lawn immobilization was HBS-EPC (10 mM HEPES, 150 mM NaCl, 3 mM EDTA, 0.05% Tween 20, pH 7.4; Teknova).
(§2) The sensor chip was then transferred to a continuous flow microspotter (CFM; Carterra Inc.) for array capturing. The mAb supernatants were diluted 50-fold ([…] final concentration) into HBS-EPC with 1 mg/mL BSA. The samples were each captured twice with 15-minute and 4-minute capture steps on the first and second prints, respectively, to create multiple densities, using a […] flow rate. The running buffer in the CFM was also HBS-EPC.
(§3) Next, the sensor chip was loaded onto an SPR reader (MX-96 system; Ibis Technologies) for the kinetic analysis. […] PD-1 injections were 5 minutes with a 15-minute dissociation at […] in a non-regenerative kinetic series. An injection of the goat anti-Human IgG Fc capture antibody at […] was injected at the end of the series to verify the capture level of each mAb. Binding data was double referenced by subtracting an interspot surface and a blank injection and analyzed for ka (on-rate), kd (off-rate), and KD (affinity) using the Kinetic Interaction Tool software (Carterra Inc.).

Test [2] concerns the target T1, human PD-1 (soluble PD-1 protein, R&D …). Briefly: array SPR, mAb captured on anti-human IgG Fc, PD-1 as analyte. The protocol: as §1, §2, §3
Test [3] has as its target T2, PD-1 expressed on cells (human, UniProt Q15116 25-288). Briefly: cell-based or functional assay.
Test [4] deals with T3, Cyno PD-1 (cyno).
T3 construct: also called cynomolgus PD-1
As to the kind of experiment: BLI, mAb on AHC biosensor, cyno PD-1 as analyte. The protocol:
The binding specificity and affinity of each full-length antibody towards PD-1 were determined using BLI and/or SPR. […] Anti-cyno PD-1 affinity was measured using BLI.
(§4) For BLI, antibodies were loaded onto an Anti-Human IgG Fc (AHC) biosensor using the Octet Red96 system (ForteBio). Loaded biosensors were dipped into antigen dilutions beginning at 300 nM, with 6 serial dilutions at 1:3. Kinetic analysis was performed using a 1:1 binding model and global fitting.

Test [5] deals with T1, human PD-1 (soluble PD-1 protein, R&D …). As to the kind of experiment: BLI (Octet Red96), mAb on AHC biosensor, PD-1 as analyte. As for the experimental part:
as §4

Test [6] addresses T2, PD-1 expressed on cells. As to the kind of experiment: flow cytometry on PD-1 expressing Flp-In CHO cells.

T2 sequence (Q15116 25-288 limits assumed): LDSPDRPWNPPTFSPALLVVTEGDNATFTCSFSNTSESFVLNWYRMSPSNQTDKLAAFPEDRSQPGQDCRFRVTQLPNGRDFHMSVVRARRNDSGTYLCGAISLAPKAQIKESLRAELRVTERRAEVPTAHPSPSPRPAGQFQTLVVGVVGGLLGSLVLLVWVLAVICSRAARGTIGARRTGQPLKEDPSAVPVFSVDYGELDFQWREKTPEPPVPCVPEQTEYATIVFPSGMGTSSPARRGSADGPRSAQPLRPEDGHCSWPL
T1 sequence (Q15116 25-170 limits assumed): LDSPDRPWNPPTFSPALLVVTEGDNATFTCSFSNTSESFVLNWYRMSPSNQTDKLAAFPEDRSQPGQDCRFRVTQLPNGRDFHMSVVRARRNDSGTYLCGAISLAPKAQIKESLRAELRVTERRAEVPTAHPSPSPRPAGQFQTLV

B1: A5 (antibody, V domains shown)
VH: QVQLVESGGGVVQPGRSLRLSCAASGFTFSNYGTHWVRQAPGKGLEWVAVIWYDGSNKYYADSVKGRFTISRDNSKNTLYLQMNSLRAEDTAVYYCARDRIYCSSTRCIGFGYYYYGMDVWGQGTTVTVSS
VL: AIQLTQSPSSLSASVGDRVTITCRASQGISSALAWYQQKPGKAPKLLIYDASSLESGVPSRFSGSGSGTDFTLTISSLQPEDFATYYCQQFNNYPWTFGQGTKVEIKR
notes: Tested as full-length mAb expressed in CHO cells; also called antibody A5; L5H5
In test [1], B1 returned a Kd of 0.035 µM, a koff of 0.00023 s⁻¹ and a kon of 6400 M⁻¹ s⁻¹. The affinity in test [2], expressed as Kd, was 0.035 µM. Further, in test [3], the “PD-1/PD-L1 blockage (IC50, µg/ml)” value turned out to be 1.31 µg/mL.

B2: A10 (antibody, V domains shown)
VH: QVQLVQSGAEVKKPGASVKVSCKASGYTFAIYGISWVRQAPGQGLEWMGWISAYSDNSNYAQKLQGRVTMTTDTSTSTAYMELRSLRSDDTAVYYCVRDGSHGDYYYGMDVWGQGTTVTVSS
VL: DIQMTQSPSSLSASVGDRVTITCRASQGISSWLAWYQQKPEKAPKSLIYAASSLQSGVPSRFSGSGSGTDFTLTISSLQPEDFATYYCQQYNSYPYTFGQGTKLEIK
notes: Tested as full-length mAb expressed in CHO cells; also called antibody A10; L10H10
For B2, the Kd in test [1] worked out at 0.01 µM; in test [2], 0.01 µM; in test [4] it was 0.012 µM. The koff in test [1] is 6.9e-05 s⁻¹. The molecule further yielded a kon in test [1] of 6600 M⁻¹ s⁻¹. The “PD-1/PD-L1 blockage (IC50, µg/ml)” value in test [3] came to 1.64 µg/mL.

B3: A4 (antibody, V domains shown)
VH: QVQLVQSGAEVKKPGASVKVSCKASGYTFATYGVSWVRQAPGQGLEWMGWISAYSDNINYAQNLQGRVTITTDTSTSTAYMELRSLRSDDTAVYYCARDGSHGDYYYGMDVWGQGTTVTVSS
VL: DIQMTQSPSSLSASVGDRVTITCRASQGISSWLAWYQQKPEKAPKSLIYAASSLQSGVPSRFSGSGSGTDFTLTISSLQPEDFATYYCQQYNSYPYTFGQGTKLEIKR
notes: Tested as full-length mAb expressed in CHO cells; also called antibody A4; L4H4
Regarding B3, in test [1], the Kd was found to be 0.02 µM, the koff is 0.00025 s⁻¹ and the kon amounted to 12000 M⁻¹ s⁻¹. Moreover, the Kd in test [2] was found to be 0.02 µM. This molecule gave a Kd in test [4] of 0.0001 µM. The “PD-1/PD-L1 blockage (IC50, µg/ml)” value in test [3] was determined as 2.12 µg/mL.

B4: A11 (antibody, V domains shown)
VH: QVQLVQSGAEVKKPGASVKVSCRASGYTFTNYGISWVRQAPGQGLEWMGWISVYSDNTHYPQKLQGRVTMTTDTSTSTAYMELRSLRSDDTAVYYCARDGSHGDYYYVMDLWGQGTTVTVSS
VL: DIQMTQSPSSLSASVGDSITITCRASQGISSWLAWYQQKPEKAPKSLIYAASSLQSGVPSRFSGSGSGTDFTLTISSLQPEDFATYYCQQFNSYPYTFGQGTKLEIK
notes: Tested as full-length mAb expressed in CHO cells; also called antibody A11; L11H11
Consider B4, for which the binding result in test [2] is reported as “no binding (tested: PD-1 injected up to 500 nM)”. In test [3], the “PD-1/PD-L1 blockage (IC50, µg/ml)” value came out at 1.31 µg/mL.

B5: A1 (antibody, V domains shown)
VH: QVQLVESGGGVVQPGRSLRLSCAASGFTFSNYGMHWVRQAPGKGLEWVAVIWYDGSNKYYTDSVKGRFTISRDNSKNTLYLQMNSLRAEDTAVYYCAGGGNYYGDYWGQGTLVTVSS
VL: DIQMTQSPSSLSASVGDRVTITCRASQGIRNDLGWYQQKPGKAPKRLIYVASSLQSGVPSRFSGSGSGTEFTLTISSLQPEDFATYYCLQHNSYPLTFGGGTKVEIKR
notes: Tested as full-length mAb expressed in CHO cells; also called antibody A1; L1H1
In test [1], B5 gave a dissociation constant Kd of 0.0037 µM, a koff of 2.6e-05 s⁻¹ and a kon of 7000 M⁻¹ s⁻¹. Besides, in test [2], the Kd is 0.0037 µM. For the same molecule, the “PD-1/PD-L1 blockage (IC50, µg/ml)” value in test [3] is 2.39 µg/mL.

B6: A2 (antibody, V domains shown)
VH: QVQLVESGGGVVQPGRSLRLSCAASGFTFSSYGMHWVRQAPGKGLEWVALISYDGSNKYYADSVKGRFTISRDNSKNTLYLQMNSLRAEDTAVYYCARGGYFDPYGDYYYGMDVWGQGTTVTVSS
VL: DIQMTQSPSSLSASVGDRVTITCRASQAIRNDLGWFQQKPGKAPKRLIYAASSLQSGVPLRFSGSGSGTEFTLTISSLQPEDFATYYCLQHNSFPWTFGQGTKVEIKR
notes: Tested as full-length mAb expressed in CHO cells; also called antibody A2; L2H2
In the case of B6, in test [1], binding was put at a Kd of 0.13 µM, the koff was determined as 0.011 s⁻¹ and the kon amounted to 80000 M⁻¹ s⁻¹. The same molecule yielded a Kd in test [2] of 0.13 µM.

B7: A3 (antibody, V domains shown)
VH: QVQLVESGGGEVQPGRSLRLSCAASGFTFSDYGMHWVRQAPGKGLEWVAVIWYDGSNKYYADSVKGRFTISRDNSKNTLYLQMNSLRAEDTAVYYCAGGGSYWGDYWGQGTLVTVSS
VL: DIQMTQSPSSLSASVGDRVTITCRASQGIRNELGWYQQKPGKAPKRLIYAASSLQSGVPSRFSGSGSGTEFTLTISSLQPEDFATYYCLQHYIYPWTFGQGTKVEIKR
notes: Tested as full-length mAb expressed in CHO cells; also called antibody A3; L3H3
Take B7: in test [1], the equilibrium dissociation constant (Kd) came to 0.23 µM, the koff turned out to be 0.0024 s⁻¹ and the kon came to 10000 M⁻¹ s⁻¹. Further, the Kd in test [2] worked out at 0.23 µM. Also, the “PD-1/PD-L1 blockage (IC50, µg/ml)” value in test [3] is 1.34 µg/mL.

B8: A6 (antibody, V domains shown)
VH: QVQLVESGGGVVQPGRSLRLSCAASGFTFSSYGMHWVRQAPGKGLEWVAVIWYDGSNKYYADSVKGRFTISRDNSKNTLYLQMNSLRAEDTAVYYCAGGGNYWGDFWGQGTLVTVSS
VL: DIQMTQSPSSLSASVGDRVTITCRASQGIRNDLGWYQQKPGKAPKRLLYAASNLQLGVPSRFSGSGSETEFTLTISSLQPEDFATYYCLQHNSYPWTFGQGTKVEIKR
notes: Tested as full-length mAb expressed in CHO cells; also called antibody A6; L6H6
For B8, in test [1], binding was put at a Kd of 0.07 µM, the koff was 0.00086 s⁻¹ and the kon is 12000 M⁻¹ s⁻¹. The Kd in test [2] stood at 0.07 µM. In test [4], this molecule had a Kd of 0.026 µM. Moreover, in test [3], the “PD-1/PD-L1 blockage (IC50, µg/ml)” value came out at 1.12 µg/mL.

B9: Pembrolizumab (antibody, V domains shown)
VH: QVQLVQSGVEVKKPGASVKVSCKASGYTFTNYYMYWVRQAPGQGLEWMGGINPSNGGTNFNEKFKNRVTLTTDSSTTTAYMELKSLQFDDTAVYYCARRDYRFDMGFDYWGQGTTVTVSS
VL: EIVLTQSPATLSLSPGERATLSCRASKGVSTSGYSYLHWYQQKPGQAPRLLIYLASYLESGVPARFSGSGSGTDFTLTISSLEPEDFAVYYCQHSRDLPLTFGGGTKVEIKR
In turn, B9 displayed a Kd in test [4] of 0.014 µM.

B10: A14 (antibody, V domains shown)
VH: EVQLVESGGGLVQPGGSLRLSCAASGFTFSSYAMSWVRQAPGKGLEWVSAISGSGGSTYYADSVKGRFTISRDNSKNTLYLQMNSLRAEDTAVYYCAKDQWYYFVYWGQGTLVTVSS
VL: DIQMTQSPSSLSASVGDRVTITCRASQGIRNDLGWYQQKPGKAPKRLIYVASSLQSGVPSRFSGSGSGTEFTLTISSLQPEDFATYYCLQHNSYPLTFGGGTKVEIK
notes: Tested as full-length mAb expressed in CHO cells; also called antibody 14; L14H14
In the case of B10, the binding result is “no binding (tested: antigen dilutions beginning at 300 nM)” in test [5] and “binds” in test [6].

B11: A8 (antibody, V domains shown)
VH: QVQLVESGGGVVQPGRSLRLSCAASGFTFSSYGMHWVRQAPGKGLEWVAVIWYDGSIKYYADSVKGRFTISRDNSKNTLYLQMNSLRAEDTAVYYCANDILTGSFDYWGQGTLVTVSS
VL: EIVLTQSPATLSLSPGERATLSCRASQSVSSYLAWYQQKPGQAPRLLIYDASNRATGIPARFSGSGSGTDFTLTISSLEPEDFAVYYCQQRNTWPYTFGQGTKLEIKR
notes: Tested as full-length mAb expressed in CHO cells; also called antibody A8; L8H8
In test [1], B11 displayed a Kd of 0.41 µM, an off-rate constant (koff) of 0.035 s⁻¹ and a kon of 84000 M⁻¹ s⁻¹. Further, in test [2], the Kd turned out to be 0.41 µM. The affinity in test [4], expressed as Kd, was 0.447 µM.

B12: A9 (antibody, V domains shown)
VH: QVQLVESGGGVVQPGRSLRLSCAASGFTFSNYGMHWVRQAPGKGLEWVAVIWYDGTNKFYADSVKGRFTISRDNSKNTLYLQMNSLRAEDTAVYYCATNSDDYWGQGTLVTVSS
VL: AIQMTQSPSSLSASVGDRVTITCRASQDIRNDLGWYQQKPGKAPKLLIYAASLLRSGVPSRFSGSGSGTDFTLTISSLQPEDFATYYCLQDNNYPRTFGQGTKVEIK
notes: Tested as full-length mAb expressed in CHO cells; also called antibody A9; L9H9
B12: in test [1], the affinity, expressed as Kd, was 0.024 µM; the koff worked out at 0.00079 s⁻¹; the kon came to 32000 M⁻¹ s⁻¹. This molecule also yielded a Kd in test [2] of 0.024 µM. In test [4], this molecule showed a Kd of 0.042 µM. For the same molecule, the “PD-1/PD-L1 blockage (IC50, µg/ml)” value in test [3] stood at 0.461 µg/mL.

B13: A7 (antibody, V domains shown)
VH: QVQLVQSGAEVKKPGASVKVSCKASGYTFTSYGINWVRQAPGQGLEWMGWISAYNGNRNYAQNLQGRVTMTSDTSTNTAYMELRSLRSYDTAVYYCARDHYDILTGYYKGGFDYWGQGTLVTVSS
VL: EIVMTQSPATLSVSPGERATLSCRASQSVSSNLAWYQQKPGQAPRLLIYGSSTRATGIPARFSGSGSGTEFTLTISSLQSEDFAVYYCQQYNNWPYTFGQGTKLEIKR
notes: Tested as full-length mAb expressed in CHO cells; also called antibody A7; L7H7
In test [1], B13 gave a Kd of 0.16 µM, a koff of 0.002 s⁻¹ and a kon of 12000 M⁻¹ s⁻¹. In test [2], this molecule had a Kd of 0.16 µM.
